Substitutions are numbered along the chain they refer to. Numbers in names are those of the source.
B1: MIS12 complex with Nsl1 E219R V220R F221A (complex, Homo sapiens)
chain 1: MSVDPMTYEAQFFGFTPQTCMLRIYIAFQDYLFEVMQAVEQVILKKLDGIPDCDISPVQIRKCTEKFLCFMKGHFDNLFSKMEQLFLQLILRIPSNILLPEDKCKETPYSEEDFQHLQKEIEQLQEKYKTELCTKQALLAELEEQKIVQAKLKQTLTFFDELHNVGRDHGTSDFRESLVSLVQNSRKLQNIRDNVEKESKRLKIS
chain 2: MAEASSANLGSGCEEKRHEGSSSESVPPGTTISRVKLLDTMVDTFLQKLVAAGSYQRFTDCYKCFYQLQPAMTQQIYDKFIAQLQTSIREEISDIKEEGNLEAVLNALDKIVEEGKVRKEPAWRPSGIPEKDLHSVMAPYFLQQRDTLRRHVQKQEAENQQLADAVLAGRRQVEELQLQVQAQQQAWQALHREQRELVAVLREPE
chain 3: MTSVTRSEIIDEKGPVMSKTHDHQLESSLSPVEVFAKTSASLEMNQGVSEERIHLGSSPKKGGNCDLSHQERLQSKSLHLSPQEQSASYQDRRQSWRRASMKETNRRKSLHPIHQGITELSRSISVDLAESKRLGCLLLSSFQFSIQKLEPFLRDTKGFSLESFRAKASSLSEELKHFADGLETDGTLQKCFEDSNGKASDFSLEASVAEMKEYITKFSLERQTWDQLLLHYQQEAKEILSRGSTEAKITEVKVEPMTYLGSSQNEVLNTKPDYQKILQNQSKVFDCMELVMDELQGSVKQLQAFMDESTQCFQKVSVQLGKRSMQQLDPSPARKLLKLQLQNPPAIHGSGSGSCQ
chain 4: MAGSPELVVLDPPWDKELAAGTESQALVSATPREDFRVRCTSKRAVTEMLQLCGRFVQKLGDALPEEIREPALRDAQWTFESAVQENISINGQAWQEASDNCFMDSDIKVLEDQFDEIIVDIATKRKQYPRKILECVIKTIKAKQEILKQYHPVVHPLDLKYDPDPAPHMENLKCRGETVAKEISEAMKSLPALIEQGEGFSQVLRMQPVIHLQRIHQRRASSCHRKPDAKPENFITQIETTPTETASRKTSDMVLKRKQTKDCPQRKWYPLRPKKINLDT
notes: Mis12, subunit of human MIS12C; Pmf1, subunit of human MIS12C; Dsn1, subunit of human MIS12C; Nsl1, subunit of human MIS12C, E219R V220R F221A; also called MIS12C^(Nsl1-E219R V220R F221A); MIS12C^(Nsl1 E219/RV220R/F221A); source: High-5 insect cells (baculovirus), purified (Strep-Tactin, Resource S, Superdex 200); copies: + + +
B2: Dsn1-P332W R334A L336R and Nsl1-E219R V220R F221A mutants: MIS12C combining the Dsn1 and Nsl1 interface mutants (protein)
chain 1: B1 chain 1
chain 2: B1 chain 2
chain 3: B1 chain 3 with P332W, R334A, L336R
chain 4: B1 chain 4
modifications: left off: double strep II (DS), C-terminal, state not stated
B3: Dsn1-P332W R334A L336R mutant: MIS12C with P332W/R334A/L336R substitutions in Dsn1 (protein)
chain 1: B1 chain 1
chain 2: B1 chain 2
chain 3: B1 chain 3 with P332W, R334A, L336R
chain 4: B1 chain 4 with R219E, R220V, A221F
modifications: left off: double strep II (DS), C-terminal, state not stated
B4: Nsl1-E219R V220R F221A mutant: MIS12C with E219R V220R F221A substitutions in Nsl1 (protein)
chain 1: B1 chain 1
chain 2: B1 chain 2
chain 3: B1 chain 3
chain 4: B1 chain 4
modifications: left off: double strep II (DS), C-terminal, state not stated
B5: Knl1 residues 2131–2337, mut2 (S2270R S2272W) (domain or fragment, H. sapiens, UniProt Q8NG31 2131-2337, looked up)
chain: SLSEWDVVEWSDDQAVFTFVYDTIQLTITFEESVVGFPFLDKRYRKIVDVNFQSLLDEDQAPPSSLLVHKLIFQYVEEKESWKKTCTTQHQLPKMLEEFSLVVHHCRLLGEEIEYLKRWGPNYNLMNIDINNNELRLLFRSWAAFAKFEITLFLSAYYPSVPLPSTIQNHVGNTSQDDIATILSKVPLENNYLKNVVKQIYQDLFQD
notes: Knl1, human, residues 2131-2337, RWD-C surface mutant 2; also called Knl1^mut2; KNL1^mut2; source: E. coli BL21 (DE3), purified (Ni-NTA, reverse IMAC, Superdex 75); not shown: His6, N-terminal, cleaved

Legend:
[1] = target: T1, MIS12C (WT) (Homo sapiens, UniProt Q6P1K2+Q96IY1+Q9H081+Q9H410); test: Isothermal titration calorimetry (ITC), peptide titrated into wild-type MIS12C; format: binding; conditions: 20 °C, 20 mM HEPES pH 7.5, 100 mM NaCl, 1 mM TCEP, syringe Dsn1^92-113 W96A/R97A/R98A 1.0 mM, cell MIS12C(WT) 0.089 mM, listed as Dsn1^92–113 peptide with three Ala residues
T1 construct: TEV-cleavable double Strep II (DS) tag (C); made in house; host or cells: High-5 insect cells (baculovirus)
T1 sequence (Q96IY1 whole entry, one chain of several): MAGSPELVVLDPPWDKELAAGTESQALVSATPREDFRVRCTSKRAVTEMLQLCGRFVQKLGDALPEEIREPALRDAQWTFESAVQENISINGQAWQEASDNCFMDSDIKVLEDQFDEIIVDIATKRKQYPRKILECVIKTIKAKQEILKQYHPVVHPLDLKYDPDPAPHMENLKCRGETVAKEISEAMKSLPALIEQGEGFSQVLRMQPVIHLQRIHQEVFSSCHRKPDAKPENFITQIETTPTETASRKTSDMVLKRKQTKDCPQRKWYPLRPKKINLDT

[2] = target: T2, NDC80 complex (Ndc80, Nuf2, Spc24, Spc25), full length, unmodified (Homo sapiens, UniProt O14777 1-642; Q9BZD4 1-464; Q8NBT2 1-197; Q9HBM1 1-224); test: SEC; MIS12C variant mixed with NDC80C at 4 µM each; 20 mM HEPES pH 7.8, 150 mM NaCl, 0.5 mM TCEP; Superose 6; fractions on SDS-PAGE; conditions: both partners purified
T2 construct: Ndc80, subunit of human NDC80C; Nuf2, subunit of human NDC80C; Spc24, subunit of human NDC80C; Spc25, subunit of human NDC80C; The DS tag on Nuf2 is TEV cleavable; a cleavage is not described; Ndc80 and Nuf2 were in the cryo-EM sample but not seen at high resolution; also called wild-type NDC80; source: High-5 insect cells (baculovirus), purified (Strep-Tactin, Resource Q, Superdex 200); copies: …
T2 sequence (O14777 whole entry, chain 1 of 4): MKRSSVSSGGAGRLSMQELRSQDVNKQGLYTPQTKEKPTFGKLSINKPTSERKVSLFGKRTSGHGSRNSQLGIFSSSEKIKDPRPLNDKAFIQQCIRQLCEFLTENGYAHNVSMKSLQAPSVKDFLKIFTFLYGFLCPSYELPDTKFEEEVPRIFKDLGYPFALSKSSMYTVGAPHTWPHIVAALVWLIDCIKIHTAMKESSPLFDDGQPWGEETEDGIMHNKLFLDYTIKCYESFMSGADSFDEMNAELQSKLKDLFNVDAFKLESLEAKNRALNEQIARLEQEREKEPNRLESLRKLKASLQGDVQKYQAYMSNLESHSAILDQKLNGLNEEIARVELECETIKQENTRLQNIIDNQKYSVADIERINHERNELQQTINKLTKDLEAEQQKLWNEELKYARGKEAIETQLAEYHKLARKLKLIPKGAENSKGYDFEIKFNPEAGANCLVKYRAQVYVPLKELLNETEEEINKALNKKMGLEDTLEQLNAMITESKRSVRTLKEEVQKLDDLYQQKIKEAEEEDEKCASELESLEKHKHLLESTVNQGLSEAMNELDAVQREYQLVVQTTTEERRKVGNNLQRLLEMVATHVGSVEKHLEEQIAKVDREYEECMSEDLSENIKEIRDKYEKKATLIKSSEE
T2 sequence (Q9BZD4 whole entry, chain 2 of 4): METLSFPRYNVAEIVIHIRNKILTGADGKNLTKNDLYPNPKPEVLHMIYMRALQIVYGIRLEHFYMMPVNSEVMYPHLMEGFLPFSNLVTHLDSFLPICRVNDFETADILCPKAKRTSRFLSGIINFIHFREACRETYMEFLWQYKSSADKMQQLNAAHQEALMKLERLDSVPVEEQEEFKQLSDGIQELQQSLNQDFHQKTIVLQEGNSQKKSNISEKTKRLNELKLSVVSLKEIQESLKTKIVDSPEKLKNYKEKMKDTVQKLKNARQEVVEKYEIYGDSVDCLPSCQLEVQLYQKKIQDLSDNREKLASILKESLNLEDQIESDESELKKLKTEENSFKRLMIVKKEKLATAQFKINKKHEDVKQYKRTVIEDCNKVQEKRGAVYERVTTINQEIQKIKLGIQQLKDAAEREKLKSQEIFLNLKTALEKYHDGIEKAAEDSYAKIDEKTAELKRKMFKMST
T2 sequence (Q8NBT2 whole entry, chain 3 of 4): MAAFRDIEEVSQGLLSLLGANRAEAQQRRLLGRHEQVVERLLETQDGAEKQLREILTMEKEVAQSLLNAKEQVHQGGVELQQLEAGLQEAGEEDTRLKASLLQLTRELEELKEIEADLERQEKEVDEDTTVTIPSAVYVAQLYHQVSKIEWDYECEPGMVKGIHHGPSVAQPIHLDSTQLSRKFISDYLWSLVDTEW
T2 sequence (Q9HBM1 whole entry, chain 4 of 4): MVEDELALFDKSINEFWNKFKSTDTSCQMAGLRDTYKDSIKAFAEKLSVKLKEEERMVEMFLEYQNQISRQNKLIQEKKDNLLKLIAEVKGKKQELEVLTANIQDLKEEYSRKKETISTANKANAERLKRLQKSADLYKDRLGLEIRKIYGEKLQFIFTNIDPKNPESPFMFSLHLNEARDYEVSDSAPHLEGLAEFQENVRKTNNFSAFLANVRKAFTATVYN

[3] = tested on: NDC80C; test: SEC assessment of MIS12C mutants binding to NDC80C; parameters: species or system Homo sapiens; conditions: MIS12C mutant + wild-type NDC80 at 4 µM each; 20 mM HEPES pH 7.8, 150 mM NaCl, 0.5 mM TCEP; Superose 6; SDS-PAGE; at least two repeats
Procedure: Assessment of substitutions in the MIS12C–NDC80C interfaces
To test the effect of substitutions in the MIS12C–NDC80C interfaces, either wild-type MIS12C or three MIS12C mutants (MIS12C^Nsl1-E219R V220R F221A, MIS12C^Dsn1-P332W R334A L336R, MIS12C^Nsl1-E219R V220R F221A, Dsn1-P332W R334A L336R) were mixed with wild-type NDC80 at 4 µM each in a buffer of 20 mM HEPES (pH 7.8), 150 mM NaCl and 0.5 mM TCEP, and 50 µl was loaded onto a Superose 6 size-exclusion column (Cytiva).
Extended Data Fig. 7 Biochemical characterization of MIS12C:NDC80C interactions. a Coomassie blue-stained SDS-PAGE gels of the MIS12C:NDC80C interaction reconstitutions. MIS12C (WT), MIS12C with E219/RV220R/F221A substitutions in Nsl1 (MIS12C^Nsl1 E219/RV220R/F221A) and MIS12C with P332W/R334A/L336R substitutions in Dsn1 (MIS12C^Dsn1 P332W/R334A/L336R) were tested for binding to full-length, unmodified NDC80C. The binding experiments were repeated at least two independent times with identical results. The gels are aligned according to the fraction number of the protein sample eluted from the size exclusion column. b SEC elution chromatograms of all of the experiments described in (a). c. Comparison of the Spc24:Spc25 interaction with peptides from MIS12C and CENP-T (PDB ID: 3VZA ref. [29]). Source data

[4] = target: T3, MIS12 complex (Mis12, Pmf1, Dsn1, Nsl1), wild type, full length (Homo sapiens, UniProt Q9H081 1-205; Q6P1K2 1-205; Q9H410 1-356; Q96IY1 1-281); test: SEC; MIS12C or MIS12C^Nsl1ΔC mixed with Knl1 2131–2337 or its mutants at 4 µM each; 20 mM HEPES pH 7.8, 150 mM NaCl, 0.5 mM TCEP; Superose 6; fractions on SDS-PAGE; conditions: both partners purified
T3 construct: Mis12, subunit of human MIS12C; Pmf1, subunit of human MIS12C; Dsn1, subunit of human MIS12C; Nsl1, subunit of human MIS12C; The DS tag on Pmf1 is TEV cleavable; a cleavage is not described; also called MIS12C (WT); wild-type MIS12C; source: High-5 insect cells (baculovirus), purified (Strep-Tactin, Resource S, Superdex 200); copies: + + +
T3 sequence (looked up) 1: B1 chain 1
T3 sequence (looked up) 2: B1 chain 2
T3 sequence (looked up) 3: B1 chain 3
T3 sequence (looked up) 4: B1 chain 4 with R219E, R220V, A221F

Molecule | MIS12C–NDC80C interaction by SEC, in words [3] | other results
RRQSAAAASMKETNRRKSLHPI-AW [Dsn1^92–113 W96A R97A R98A, Dsn1^92–113 peptide with WRR linchpin substituted by three Ala residues] |  | Kd / interaction of mutant Dsn1^92–113 peptide, in words [1]: completely abolished
B1 |  | binding result [2]: binds
B2 | completely abolished MIS12C–NDC80C interactions | 
B3 | reduced the affinity of MIS12C for NDC80C | 
B4 | reduced the affinity of MIS12C for NDC80C | 
B5 |  | binding result [4]: binds

Reference: paper PMC11189301, “Structure of the human outer kinetochore KMN network complex” (Nature Structural & Molecular Biology, 2024)
